In IntAct's records for PubMed 25910212:

B1: Claudin-19 (Homo sapiens), Q8N6F1-2 (parent)
chain: MANSGLQLLGYFLALGGWVGIIASTALPQWKQSSYAGDAIITAVGLYEGLWMSCASQSTGQVQCKLYDSLLALDGHIQSARALMVVAVLLGFVAMVLSVVGMKCTRVGDSNPIAKGRVAIAGGALFILAGLCTLTAVSWYATLVTQEFFNPSTPVNARYEFGPALFVGWASAGLAVLGGSFLCCTCPEPERPNSSPQPYRPGPSAAAREYV
partner: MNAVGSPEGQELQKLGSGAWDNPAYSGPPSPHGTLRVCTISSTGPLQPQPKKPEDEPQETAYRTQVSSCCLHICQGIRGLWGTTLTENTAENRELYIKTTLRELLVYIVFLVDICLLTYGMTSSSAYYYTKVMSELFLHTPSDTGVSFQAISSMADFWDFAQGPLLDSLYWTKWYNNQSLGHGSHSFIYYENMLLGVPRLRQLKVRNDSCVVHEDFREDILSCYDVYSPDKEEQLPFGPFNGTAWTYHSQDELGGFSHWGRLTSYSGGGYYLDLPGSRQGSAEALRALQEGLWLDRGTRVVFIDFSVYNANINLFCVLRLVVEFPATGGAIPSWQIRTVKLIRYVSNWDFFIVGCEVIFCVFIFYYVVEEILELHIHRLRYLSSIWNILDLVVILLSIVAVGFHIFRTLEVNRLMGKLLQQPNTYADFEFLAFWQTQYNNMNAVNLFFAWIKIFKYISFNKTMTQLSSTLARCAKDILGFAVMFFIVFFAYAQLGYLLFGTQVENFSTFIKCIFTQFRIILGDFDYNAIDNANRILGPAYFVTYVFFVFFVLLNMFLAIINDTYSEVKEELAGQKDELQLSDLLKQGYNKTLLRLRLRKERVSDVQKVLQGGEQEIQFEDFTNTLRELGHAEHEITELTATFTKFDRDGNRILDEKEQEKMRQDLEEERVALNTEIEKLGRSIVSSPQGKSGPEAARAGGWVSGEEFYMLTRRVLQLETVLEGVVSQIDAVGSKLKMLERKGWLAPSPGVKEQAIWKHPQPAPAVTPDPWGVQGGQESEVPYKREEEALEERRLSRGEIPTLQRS
B2: Phakinin (Homo sapiens), Q13515 (parent)
chain: MSERRVVVDLPTSASSSMPLQRRRASFRGPRSSSSLESPPASRTNAMSGLVRAPGVYVGTAPSGCIGGLGARVTRRALGISSVFLQGLRSSGLATVPAPGLERDHGAVEDLGGCLVEYMAKVHALEQVSQELETQLRMHLESKATRSGNWGALRASWASSCQQVGEAVLENARLMLQTETIQAGADDFKERYENEQPFRKAAEEEINSLYKVIDEANLTKMDLESQIESLKEELGSLSRNYEEDVKLLHKQLAGCELEQMDAPIGTGLDDILETIRIQWERDVEKNRVEAGALLQAKQQAEVAHMSQTQEEKLAAALRVELHNTSCQVQSLQAETESLRALKRGLENTLHDAKHWHDMELQNLGAVVGRLEAELREIRAEAEQQQQERAHLLARKCQLQKDVASYHALLDREESG
partner: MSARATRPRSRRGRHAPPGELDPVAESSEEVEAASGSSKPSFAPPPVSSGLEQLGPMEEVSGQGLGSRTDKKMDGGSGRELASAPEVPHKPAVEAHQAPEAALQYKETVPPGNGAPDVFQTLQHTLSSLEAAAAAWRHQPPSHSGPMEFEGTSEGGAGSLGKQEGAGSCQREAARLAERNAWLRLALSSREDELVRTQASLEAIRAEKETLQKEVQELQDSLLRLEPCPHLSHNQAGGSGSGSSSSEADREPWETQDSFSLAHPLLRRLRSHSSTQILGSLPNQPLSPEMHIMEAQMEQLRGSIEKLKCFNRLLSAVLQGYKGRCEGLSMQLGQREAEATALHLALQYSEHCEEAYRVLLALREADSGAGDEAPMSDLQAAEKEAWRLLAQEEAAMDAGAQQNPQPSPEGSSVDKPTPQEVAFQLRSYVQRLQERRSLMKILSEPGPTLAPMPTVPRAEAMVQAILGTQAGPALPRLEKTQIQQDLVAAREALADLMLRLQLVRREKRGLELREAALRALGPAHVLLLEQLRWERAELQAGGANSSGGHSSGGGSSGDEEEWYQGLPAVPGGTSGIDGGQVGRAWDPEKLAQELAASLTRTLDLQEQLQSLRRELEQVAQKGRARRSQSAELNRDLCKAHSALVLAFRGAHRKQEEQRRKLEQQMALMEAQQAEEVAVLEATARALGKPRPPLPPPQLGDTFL
B3: U4/U6 small nuclear ribonucleoprotein Prp3 (Homo sapiens), O43395 (parent)
chain: MALSKRELDELKPWIEKTVKRVLGFSEPTVVTAALNCVGKGMDKKKAADHLKPFLDDSTLRFVDKLFEAVEEGRSSRHSKSSSDRSRKRELKEVFGDDSEISKESSGVKKRRIPRFEEVEEEPEVIPGPPSESPGMLTKLQIKQMMEAATRQIEERKKQLSFISPPTPQPKTPSSSQPERLPIGNTIQPSQAATFMNDAIEKARKAAELQARIQAQLALKPGLIGNANMVGLANLHAMGIAPPKVELKDQTKPTPLILDEQGRTVDATGKEIELTHRMPTLKANIRAVKREQFKQQLKEKPSEDMESNTFFDPRVSIAPSQRQRRTFKFHDKGKFEKIAQRLRTKAQLEKLQAEISQAARKTGIHTSTRLALIAPKKELKEGDIPEIEWWDSYIIPNGFDLTEENPKREDYFGITNLVEHPAQLNPPVDNDTPVTLGVYLTKKEQKKLRRQTRREAQKELQEKVRLGLMPPPEPKVRISNLMRVLGTEAVQDPTKVEAHVRAQMAKRQKAHEEANAARKLTAEQRKVKKIKKLKEDISQGVHISVYRVRNLSNPAKKFKIEANAGQLYLTGVVVLHKDVNVVVVEGGPKAQKKFKRLMLHRIKWDEQTSNTKGDDDEESDEEAVKKTNKCVLVWEGTAKDRSFGEMKFKQCPTENMAREHFKKHGAEHYWDLALSESVLESTD
partner: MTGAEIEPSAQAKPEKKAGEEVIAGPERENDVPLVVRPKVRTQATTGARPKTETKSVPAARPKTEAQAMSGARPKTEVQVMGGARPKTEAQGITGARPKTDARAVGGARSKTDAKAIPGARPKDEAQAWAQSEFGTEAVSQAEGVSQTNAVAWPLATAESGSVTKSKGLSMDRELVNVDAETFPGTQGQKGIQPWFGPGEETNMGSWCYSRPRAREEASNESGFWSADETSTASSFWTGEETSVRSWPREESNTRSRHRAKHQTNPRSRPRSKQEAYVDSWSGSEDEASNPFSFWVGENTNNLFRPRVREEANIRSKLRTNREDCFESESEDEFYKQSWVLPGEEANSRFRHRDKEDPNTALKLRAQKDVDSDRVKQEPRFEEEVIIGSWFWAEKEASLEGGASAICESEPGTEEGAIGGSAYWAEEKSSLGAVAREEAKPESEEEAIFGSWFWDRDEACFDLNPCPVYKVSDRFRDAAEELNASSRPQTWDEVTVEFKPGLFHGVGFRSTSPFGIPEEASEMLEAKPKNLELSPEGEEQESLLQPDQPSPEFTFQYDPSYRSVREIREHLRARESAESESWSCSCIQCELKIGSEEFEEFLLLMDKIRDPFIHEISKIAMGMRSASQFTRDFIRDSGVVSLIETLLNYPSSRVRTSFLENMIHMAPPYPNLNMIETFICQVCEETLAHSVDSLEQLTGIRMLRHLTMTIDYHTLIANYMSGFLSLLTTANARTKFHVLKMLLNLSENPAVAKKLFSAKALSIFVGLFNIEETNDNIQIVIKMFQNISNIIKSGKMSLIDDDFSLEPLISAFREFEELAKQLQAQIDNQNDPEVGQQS
B4: U4/U6 small nuclear ribonucleoprotein Prp3 (Homo sapiens), O43395 (parent)
chain: B3 chain
partner: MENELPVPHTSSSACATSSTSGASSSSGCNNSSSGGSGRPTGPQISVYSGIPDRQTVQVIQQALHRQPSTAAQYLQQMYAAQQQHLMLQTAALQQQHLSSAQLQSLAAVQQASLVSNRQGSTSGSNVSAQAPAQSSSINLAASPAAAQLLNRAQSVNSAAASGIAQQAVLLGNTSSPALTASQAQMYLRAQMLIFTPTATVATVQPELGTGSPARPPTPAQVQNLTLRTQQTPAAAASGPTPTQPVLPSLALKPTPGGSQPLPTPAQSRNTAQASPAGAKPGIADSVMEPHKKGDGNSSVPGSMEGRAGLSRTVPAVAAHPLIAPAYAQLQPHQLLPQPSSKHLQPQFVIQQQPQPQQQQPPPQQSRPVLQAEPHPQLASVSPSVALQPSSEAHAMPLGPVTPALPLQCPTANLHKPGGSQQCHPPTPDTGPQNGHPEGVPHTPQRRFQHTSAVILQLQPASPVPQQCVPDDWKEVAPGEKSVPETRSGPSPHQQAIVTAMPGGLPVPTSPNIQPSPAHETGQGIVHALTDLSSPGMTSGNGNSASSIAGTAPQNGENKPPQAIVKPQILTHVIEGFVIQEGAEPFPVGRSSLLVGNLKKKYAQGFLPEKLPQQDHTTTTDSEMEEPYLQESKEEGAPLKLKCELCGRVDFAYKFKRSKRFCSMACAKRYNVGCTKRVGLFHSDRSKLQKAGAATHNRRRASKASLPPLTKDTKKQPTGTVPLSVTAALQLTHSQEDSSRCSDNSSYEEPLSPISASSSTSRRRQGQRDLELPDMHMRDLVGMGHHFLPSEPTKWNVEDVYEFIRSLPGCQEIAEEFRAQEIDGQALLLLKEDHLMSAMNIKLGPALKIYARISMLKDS

Variants of: B1
Conditions: with pk2l1_human PKD2L1, Q9P0L9

Row | Variant | effect of a mutation on the interaction
1 | G20D | disrupting interaction strength
2 | L90P | disrupting interaction strength
3 | R200Q | with no effect

Variants of: B2
Conditions: with usbp1_human USHBP1, Q8N6Y0

Row | Variant | effect of a mutation on the interaction
4 | R339H | with no effect
5 | A407D | with no effect

Variants of: B3
Conditions: with gasp2_human GPRASP2, Q96D09

Row | Variant | effect of a mutation on the interaction
6 | A489D | with no effect
7 | P493S | with no effect
8 | T494M | with no effect

Variants of: B4
Conditions: with PHC2, Q8IXK0-5

Row | Variant | effect of a mutation on the interaction
9 | A489D | disrupting interaction strength
10 | P493S | disrupting interaction strength
